Data published in the DeepSol protein solubility set.

Test: soluble on expression in E. coli; label from the status in PepcDB or PDB records

Sequence | soluble on expression in E. coli
MGSDKIHHHHHHMLKIELLESFIAVAECGNMSKAADKVCRTQSTLSLQIKKLEEVVGQSLLLRDNKGTTLTESGSTLLNYAYKMMQLNSQAIHDLKDCQNREIIRLGVPTDYIKFYLNSCLLEFIREFTCIELVIDTDVSGNLFKRLQQGEFDLIVATHWQAPVNGELLFSRRFHWAAAKNGQAHKRSTVPMALYPENCPIRAQVFANHQLSMRPINVLLSTPSPQALCMAVENDLAIAPIAEFRTNEHMQILDPHEHGLPPLPIFNESLYLNPETQTEATMQLITLIKANVEHLSDTID | not soluble
MGSDKIHHHHHHMSIKSDKWIRRMSEEFGMIDPFEPNQIKEADGQRIISYGTSSYGYDIRCANEFKIFTNINSTIVDPKNFDPKNFVTVEDDCCIIPPNSFALARTVEYFRIPRNVLTVCLGKSTYARCGIIVNVTPFEPEWEGYVTLEFSNTTPLPAKIYAGEGVAQVLFFESDEVCETSYKDRNGKYMGQTGVTLPKA | not soluble
MAHHHHHHVDDDDKMSLLDAHIPQLIASHTAFAAKAGLMRHTIGQAEQQAMSAQAFHQGESAAAFQGAHARFVAAAAKVNTLLDIAQANLGEAAGTYVAADAAAASSYTGF | soluble
MGMEYSFGFTKIDEAQKQSMVDGVFHSVAENYDKMNDILSLGLHRMWKNSMVAWLSPPAVFHWKVLDVAGGTGDIAFRILNASRQKAHATVLDINGSMLSVGKKRAEKNGLAPLIDFVEANAEHLPFEDQSFDAYTIAFGIRNVPHIDQALREAFRVLKPGGRFLCLEFSNVEMPLLDKIYDLWSFHAIPKLGQLIANDGDAYRYLVESIRKFPKQDDFAHMINHVGFSRVSYRNLTGAIAALHSAWKILEHHHHHH | not soluble
MGHHHHHHSHTRDELRAKALHIPFPVEKIINLPVVDFNEMMSKEQFNEAQLALIRDIRRRGKNKVAAQNCRKRKLENIVELEQDLDHLKDEKEKLLKEKGENDKSLHLLKKQLSTLYLEVFSMLRDEDGKPYSPSEYSLQQTRDGNVFLVPKSKK | soluble
MYDCAAPSLSTGRNTMNHTAELEKALTDLRHITGISMEIHAETEEEVTKALEQLKLLSSAYKEKYNKIHFLQSLMTDSIPTYNVYDRAARLHIAPEEPRILYLLETSHSLDEDISEILKNLFPSQSGAFRIPLTEASCAILCPVRSLADSSQETVHLTARMIVDTVNAEALARVRVSYSKTLHNLLDLSTAFRETSLALKVGKLFYSEQTVFPYNRLGIGRLIYRLPTSLCENFLHEIFGEEIPQALDEETTATVNKFLQNNLNIAETSRQLHMHRNTLIYRLEQIEKRTGLDLRQFEDAMTFKIASMVMNYLYTERNIPHE | not soluble
MGSDKIHHHHHHMFSLEQLEAFMETVESGSFSNAARQLKKAQSVVSQHVMNLEIDCGVELFDRSGRYPVLTAEGSKLLPYARATILQHRRLKHTALSLFSRQSSEVCLAMDEGIPIQRISEIIQLLESDFPNIELEFLSASSIDIIDMVHSGRASTGLIFSELSMPSSIDFESIGVIEFDLYVASSHPLAKSVAPNMDSLRLYRQLCIRSRNTKTSSFQQVFSPDVWYADNYYVLLELALQGHGWCLLPEHMASSSVSSGNLTRVPIEFEQIGWYANVDVIQHQDKSSLPLLKRLRQLFRELLVGQK | not soluble
CQDYIPVKDQKVVDLMSRDVVAIDASDRLVDVVEFLCIDKEQLYPTSSMGIATRLTSLSLEERAKSMKVSKPQVLPVLENGQMVGVVTRQEVLKALRPVFGERLNLVEDKALETA | not soluble
MGHHHHHHSHMQENQQITKKEQYNLNKLQKRLRRNVGEAIADFNMIEEGDRIMVCLSGGKDSYTMLEILRNLQQSAPINFSLVAVNLDQKQPGFPEHVLPEYLEKLGVEYKIVEENTYGIVKEKIPEGKTTCSLCSRLRRGILYRTATELGATKIALGHHRDDILQTLFLNMFYGGKMKGMPPKLMSDDGKHIVIRPLAYCREKDIQRFADAKAFPIIPCNLCGSQPNLQRQVIADMLRDWDKRYPGRIETMFSAMQNVVPSHLCDTNLFDFKGITHGSEVVNGGDLAFDREEIPLQPACWQPEEDENQLDELRLNVVEVK | soluble
MSSSREENVYLAKLAEQAERYEEMVEFMEKVAKTVDTDELTVEERNLLSVAYKNVIGARRASWRIISSIEQKEESRGNDDHVSIIKDYRGKIETELSKICDGILNLLDSHLVPTASLAESKVFYLKMKGDYHRYLAEFKTGAERKEAAESTLVAYKSAQDIALADLAPTHPIRLGLALNFSVFYYEILNSPDRACSLAKQAFDEAISELDTLGEESYKDSTLIMQLLRDNLTLWNSDINDEAGGDEIKEASKHEPEEGKPAETGQ | soluble
MLDKVIYSLLRTQDPGLAQELYFRLQAKEQSFAEVAQKYSQGPESQTGGLVGPVEQSSLHPAMVQLLSSCQPGQISPPTRITELEHHHHHH | not soluble
MRVYVFTPDGDVLDLPHGVTPLDFAYHVHSNLGHRCRGAKVNGHIVPLTYQLKTGDRVEVLTGKEIKPSRLEHHHHHH | not soluble
MIEMTPDSSVYKALLESTKAIPWKINWQTMAFEYIGPQIEALLGWPQGSWKSVEDWATRMHPEDQEWVVNFCVKQSECGVDHEADYRALHRDGHYVWIRDVVHVVRDDSGEVEALIGFMFDISERKKTLEHHHHHH | soluble
MGHHHHHHSHMTDIKILDACCGSRLFWFDKNEPHTTFMDVRQEKFEMHGKKINVNPDVIGDFRDMPFESNSFNLVVFDPPHLKYVGQNSIMKAQYGQLDKENWKEDISKGFEECMRVLKVGGTLVFKWSDCQVNVREVLSAIPFKPLFGQQRGTTHWMTFVKFELTGNGG | not soluble
MGKIKIGINGFGRIGRLVARVALQSEDVELVAVNDPFITTDYMTYMFKYDTVHGQWKHSDIKIKDSKTLLLGEKPVTVFGIRNPDEIPWAEAGAEYVVESTGVFTDKEKAAAHLKGGAKKVVISAPSKDAPMFVCGVNEDKYTSDIDIVSNASCTTNCLAPLAKVIHDNFGIIEGLMTTVHAITATQKTVDGPSSKDWRGGRAASFNIIPSSTGAAKAVGKVLPDLNGKLTGMSFRVPTVDVSVVDLTVRIEKAASYDAIKSAIKSASEGKLKGIIGYVEEDLVSTDFVGDSRSSIFDAKAGIALNDNFVKLVAWYDNEWGYSNRVIDLIRHMAKTQ | soluble
MRIPLVGKDSIESKDIGFTLIHEHLRVFSEAVRQQWPHLYNEDEEFRNAVNEVKRAMQFGVKTIVDPTVMGLGRDIRFMEKVVKATGINLVAGTGIYIYIDLPFYFLNRSIDEIADLFIHDIKEGIQGTLNKAGFVKIAADEPGITKDVEKVIRAAAIANKETKVPIITHSNAHNNTGLEQQRILTEEGVDPGKILIGHLGDTDNIDYIKKIADKGSFIGLDRYGLDLFLPVDKRNETTLRLIKDGYSDKIMISHDYCCTIDWGTAKPEYKPKLAPRWSITLIFEDTIPFLKRNGVNEEVIATIFKENPKKFFS | soluble
MAHHHHHHMGIYSDTDDDSPIGIEVVGEASSDSEEPNPHSTTKRKVSGAVDHNNGYNQKKNKRRRLKNKWEENPQLHETPDEEQISNVKKRVYVLDTCSIVEHIEWSILEEVAKYYLIIIPKKVMDELGKMEGGRGSTCNRVLNKLENEHTSNKMNVGFRLQRKNDKDKNVLSAARVNDDHILSCACSFRNEHDVVLVTSDNILKLKAYAEGIPTVSTLKDVTRLTNGLRGGKFE | not soluble
QVEFYFSEFNFPYDRFLRTTAEKNDGWVPISTIATFNRMKKYRPVDKVIEALRSSEILEVSADGENVKRRVPLDLTAARNARIEQNQRTLAVMNFPHEDVEASQIPELQENLEAFFKKLGEINQVRLRRDHRNKKFNGTVLVEFKTIPECEAFLKSYSNDDESNEILSYEGKKLSVLT | not soluble
MHHHHHHSSGVDLGTENLYFQSMDLRVQELIKLICNVQAMEEMMMEMKYNTKKAPLGKLTVAQIKAGYQSLKKIEDCIRAGQHGRALMEACNEFYTRIPHDFGLRTPPLIRTQKELSEKIQLLEALGDIEIAIKLVKTELQSPEHPLDQHYRNLHCALRPLDHESYEFKVISQYLQSTHAPTHSDYTMTLLDLFEVEKDGEKEAFREDLHNRMLLWHGSRMSNWVGILSHGLRIAHPEAPITGYMFGKGIYFADMSSKSANYCFASRLKNTGLLLLSEVALGQCNELLEANPKAEGLLQGKHSTKGLGKMAPSSAHFVTLNGSTVPLGPASDTGILNPDGYTLNYNEYIVYNPNQVRMRYLLKVQFNF | soluble
MPFILRRERSILKTALPPIRDDAVLCPLLPFQSAQLKEVERKHHAGTLSGNPHIQYRKILLHPHTTQSFLHVDEEVVCTSGKLLVLDFVMRFLQRTQHKLLVVCGWTLILDIVETLCGMRGIPYVRLDGRTMVKQREANIRGFNRSVANGNGVVEEAGGGGGDAEGDAATSRPRRNSRQRASTDTTGGPSPNADGRGDEEDGSSLPLATPCCFLISKVAGGAGLNLQAADTVFLLDVDYNPQRDAQALSRVYRVGQSKEVRVFRLIIDHAIEHDIVAIHEAKDDLGRAVVQAGCYDLHSSAHEREAALQGIFRAGALSRLSQQWTTTTRTADDTQGDSGEEEREEAVPSPCASFPPMTFPRCDLKDEGGADSDTEEVGKASPSPAQKSTDLHCVFISGGSGGARAMSSAPRKQVKTEMESEGSGRLADAADGEISVAVAGDVNPQCALLPHRRRRRHISFKLEKDDSEEGGGKAGRGDPAADPAGNARKLANPATAPLLFTAPPPHPSMTAAEVGEAVAAATARVQAPAEHRLAMRERLEEVLLRRKGERHVLEDMFRSV | soluble
MSLSRTTQLPFAKRQFFQVLARNYSNTQDADLVVIGGGPGGYVAAIKAAQLGMKTVCVEKNATLGGTCLNVGCIPSKALLNNSHYLHMAQHDFAARGIDCTASLNLPKMMEAKSNSVKQLTGGIKQLFKANKVGHVEGFATIVGPNTVQAKKNDGSVETINARNILIASGSEVTPFPGITIDEKQIVSSTGALSLGQVPKKMVVIGAGVIGLELGSVWQRLGAEVTAVEFLGHVGGMGIDGEVSKNFQRSLTKQGFKFLLNTKVMGASQNGSTITVEVEGAKDGKKQTLECDTLLVSVGRRPYTEGLGLSNVQIDLDNRGRVPVNERFQTKVPSIFAIGDVIEGPMLAHKAEDEGILCVEGIAGGPVHIDYNCVPSVVYTHPEVAWVGKAEEQLKQEGVAYKIGKFPFVANSRAKTNNDQEGFVKVLADKQTDRMLGVHIIGPNAGEMIAEATLAMEYGASAEDVARVCHPHPTLSEAFREANLAAYCGKAINNV | not soluble
SLRSFEAPNGVAFASIGDTGAANSNQAKCGISLAALSVALDIKFVNLLGDNLYPHGVTSAVDPLWQSAFEVPFGAPSLQKVAFFPVLGNHDYHLDPYAQIDRCIRLGNEHLNFTEKEKTDGSRPQLSKTYQMQAMLPWMKIHHEKFRYSFDQTTKMHGLDGPRWRLPNFWYFTRHVFRNVPRHVKNPFVTGASISDISLVSTEEDKTDVTVVTIYIDSMVLLLEEGSKSSSIRYRFPRDELYYRHLEFLEDTLKAATREADWIFIAGHHPVVNYSVRNAKPSDFAVRLTELMRKYKVDTFLSGHEHALSFFQEPDANTTHIISGTGSKLSARDPIPSKDCLFSVREHGVAVHVLGKEELHHGFVSADGKVLFTASQRRQDRT | soluble
WTVNPYRGCTHACVYCFARKTHSYLDLDTGLGFDSQIVVKINAPDLLRRQLASRRWHGEHVAMGTNVDCYQRAEGRYQLMPGIIAALRDHANPFSILTKGTLILRDLDLLEQAAEVTDVGISVSVGFTDHELWRTVEPGTPAPERRLDVVRTLSEHGIGCGVLMAPVIPFLSDQPAQLRATVRAIAAAGATSVTPLVLHLRPGAREWFMAWLEHHHPYLVRRYERLYAEGAYAPKWYQRRITRQVHELAQEYGIGPTRAGMPRRIPEPEPETPPTPEPTQLTLL | not soluble
LRVFSSDGKLIAEFGEMRRTPIRFAEIPPNFINALLSAEDDNFANHYGVDPSSLMRAATQLVKSGHIQSGGSTITMQVAKNFFLTSERSFSRKTTEILLALQIERQLTKDEILELYVNKIYLGNRAYGIEAAAQVYYGKSIRDVSLAQMAMIAGLPKAPSRFNPLANA | not soluble
